Assay results reported in patent US20250026815A1 (GAN AND LEE PHARMACEUTICALS, published 2025).
Residue numbers refer to the chain shown, from its start. Where two headings read alike, the source gives them in different places.

B1: A2-G (antibody, human IgG1, kappa, V domains shown)
VH: QVTLKESGPALVKPTQTLTLTCTFSGFSLSTSGMGVSWIRQPPGKALEWLAHIYWDDDKNFNPSLRSRLTITKDPSKNQVVLTMTNMDPVDTATYFCARKLYNDYDYILDYWGQGTTVTVSS
VL: DIVMTQSPLSLPVTPGEPASISCRSSKSLLHSNGITYLGWFLQKPGQSPQLLIYQMSNLASGVPDRFSGSGSGTDFTLKISRVEAEDVGVYYCAQNLELWTFGQGTRLEIKR
notes: also called humanized mutant antibody A2-G
B2: A2-I (antibody, V domains shown)
VH: B1 VH
VL: DIVMTQSPLSLPVTPGEPASISCRSSKSLLHSNGITYLIWFLQKPGQSPQLLIYQMSNLASGVPDRFSGSGSGTDFTLKISRVEAEDVGVYYCAQNLELWTFGQGTRLEIK
notes: also called humanized mutant antibody A2-I
B3: A2-Q (antibody, V domains shown)
VH: B1 VH
VL: B2 VL with I39Q
notes: also called humanized mutant antibody A2-Q
B4: A2-M (antibody, V domains shown)
VH: B1 VH
VL: B2 VL with I39M
notes: also called humanized mutant antibody A2-M
B5: A2-P (antibody, V domains shown)
VH: B1 VH
VL: B2 VL with I39P
notes: also called humanized mutant antibody A2-P
B6: A2-A (antibody, human IgG1, kappa, V domains shown)
VH: B1 VH
VL: B1 VL with G39A
notes: also called humanized mutant antibody A2-A
B7: A2-N (antibody, V domains shown)
VH: B1 VH
VL: B2 VL with I39N
notes: also called humanized mutant antibody A2-N
B8: R3-16A10QH (antibody, human IgG1, kappa, V domains shown)
VH: EVKLEESGPELVKPGASVKISCKTSGYAFSDSWMNWVKQRPGQGLEWIGRIYPGDGDTQYNGKVKGKATLTADKSSSTAYMQVSSLTSVDSAVYFCAREGGMITSSGYYHALDYWGQGTSVTVSS
VL: DIVMTQSPASLAVSLGQRTTISCRASESVDSYGNSFLNWYQQKPGQPPKVLIYLASNLESGVPARFSGSGSRTDFTLIIDPVEADDAATYYCQQNNEDPTFGGGTKLEIKR
notes: also called chimeric antibody of R3-16A10
B9: R3-38B6QH (antibody, human IgG1, kappa, V domains shown)
VH: B8 VH with E1Q, K3Q, T24A, D31S, N61H, S106N
VL: B8 VL with S7T, P8T, L15Q, T19A, R24S, L37M, I78T
notes: also called chimeric antibody of R3-38B6
B10: R10-10B2QH (antibody, human IgG1, kappa, V domains shown)
VH: QVQLEESGAELVRSGASVKLSCTASGFNIKDYYIHWVKQRPEQGLEWIGWNDPENGDTEYAPKFQGKATMTADTSSNTVYLQLSSLTSEDSAVYFCKSFDSYLEYWGQGTSVTVSS
VL: DIVMTQTTLSLPVNLGDQASISCRSSQSLVHTDGNTFLEWYLQRPGQSPKLLIYKVSIRFSGVPDRFSGSGSGTDFTLKISRVETEDLGVYYCFQGSHVPRTFGGGTKLEIKR
notes: also called chimeric antibody of R10-10B2
B11: R1-11C3QH (antibody, human IgG1, kappa, V domains shown)
VH: EVQLEESGAELVRSGASVKLSCTASGFNIKDYYMHWVKQRPEQGLEWIGWIDPENGDTEYAPKFQGKATLTADTSSNTAYLQLSTLTSEDNAVYYCNAAYYGDYVEDMDYWGQGTSVTVSS
VL: B10 VL with T8P, P12S, N14S, L29I, T32S, R44K, I58N, T85A, G96A, V99L
notes: also called chimeric antibody of R1-11C3
B12: R3-39A3QH (antibody, human IgG1, kappa, V domains shown)
VH: QVKLEESGPELVKPGASVKISCKASGYAFSSSWVNWVQQRPGQGLEWIGRIYPGDGETKYSGKFRGKATLTADKSSNTVYMQVSSLTSVDSAVYFCAREGGLITSSGYYHAMDYWGQGTSVTVSS
VL: DIVLTQSPPSLAVSLGQRATISCRASKSVDSYGNGFMHWYQQKPGQPPKLLIFLASNLESGVPARFSGSGSRTDFTLTIDPVEADDAASYYCQQSDEDPTFGGGTKLEIKR
notes: also called chimeric antibody of R3-39A3
B13: R10-6A11QH (antibody, human IgG1, kappa, V domains shown)
VH: QVKLEESGPGILQPSQTLSLTCSFSGFSLSTSGMGVSWIRQPSGKGLEWLAHIYWDDDKNYNPSLKSRLTISKDTSRNQVFLKITSVDTADTATYYCARKIYYDYDYALDYWGQGTSVTVSS
VL: DIVMTQAAFSNPVTLGTSASISCRSSKSLLHSNGITYLCWFLQKPGQSPQLLIYQMSNLASGVPDRFSGSGSGTDFTLRISRVEAEDVGVYYCAQNLELWTFGGGTKLEIKR
notes: also called chimeric antibody of R10-6A11
B14: R10-19B2QH (antibody, human IgG1, kappa, V domains shown)
VH: EVKLQESGPGMLQPSQTLSLTCSFSGFSLSTSGMGVSWIRQPSGKGLEWLAHIYWDDDKNFNPSLRSRLIISKDPSRNQVFLEITSVDTADTATYFCARKLYNDYDYILDYWGQGTSVTVSS
VL: B13 VL
B15: R18-11B1QH (antibody, human IgG1, kappa, V domains shown)
VH: EVQLEESGPELVKPGASVKISCKSSAQTFSGSWINWVKQRPGQGLEWIGRIFPGDGDTKYNMNFTGKATLTADKSSNTAYMHVSSLTSVDSAVYFCARYDGYYDIGYFDVWGAGTTVTVSS
VL: DIVMTQTPASLAVSLGQRATISCRASASVDSYGNKFIHWYQQKPGQPPKLLISLASNLESGVPARFSGSGSRTDFTLTIDPVEADDAATYYCQQTNEDPWTFGGGTKLEIKR
notes: also called chimeric antibody of R18-11B1
B16: R18-22D7QH (antibody, human IgG1, kappa, V domains shown)
VH: EVKLLESGGGLVQPGGSLKLSCAASGFDFSRYWMSWVRQAPGKGLEWIGEINPDSSTINYTPSLKDKFIISRDNAKNTLYLQMSKVRSEDTALYYCARRGGISYAMDYWGQGTSVTVSS
VL: DIVITQDELSNPVTSGESVSISCRSSKSLLYKDGKTYLNWFLQRPGQSPQLLIYLMSTRASGVSDRFSGSGSGTDFTLEISRVKAEDVGVYYCQQLVEYPRTFGGGTKLEIKR
notes: also called chimeric antibody of R18-22D7

Tests used:
[1] = target: T1, recombinant RSV-F protein (RSV A2 strain fusion (F) protein with added His tag) (human respiratory syncytial virus, A2 …, UniProt P03420 26-524); experiment: SPR (Biacore), antibody captured, RSV-F as analyte; column head prints nM, Kd/Ka gives M
T1 construct: also called RSV-F recombinant protein
T1 sequence (P03420 26-109, chain 1 of 2): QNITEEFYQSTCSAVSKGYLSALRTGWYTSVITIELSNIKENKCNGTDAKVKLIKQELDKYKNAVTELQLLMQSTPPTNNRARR
T1 sequence (P03420 137-524, chain 2 of 2): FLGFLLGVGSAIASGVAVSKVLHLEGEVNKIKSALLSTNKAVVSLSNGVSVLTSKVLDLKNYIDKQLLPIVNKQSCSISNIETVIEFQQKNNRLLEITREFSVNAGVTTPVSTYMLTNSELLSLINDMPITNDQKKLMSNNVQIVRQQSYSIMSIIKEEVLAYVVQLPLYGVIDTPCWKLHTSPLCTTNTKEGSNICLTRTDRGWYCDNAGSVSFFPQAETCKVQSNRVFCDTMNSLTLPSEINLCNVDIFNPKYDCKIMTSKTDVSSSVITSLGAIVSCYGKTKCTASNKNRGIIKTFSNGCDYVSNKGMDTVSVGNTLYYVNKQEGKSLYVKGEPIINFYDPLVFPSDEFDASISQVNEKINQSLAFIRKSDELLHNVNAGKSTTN

[2] = target: T1, recombinant RSV-F protein (RSV A2 …); experiment: SPR (Biacore), antibody captured, RSV-F as analyte
[3] = target: RSV-F protein of RSV B9320 virus (as carried by the live virus in the neutralisation assay) (human respiratory syncytial virus, …); experiment: cell-based or functional assay
[4] = target: RSV-F protein of RSV A Long virus (as carried by the live virus in the neutralisation assay) (human respiratory syncytial virus, …, UniProt P12568 26-574); experiment: cell-based or functional assay
[5] = target: RSV-F protein of RSV A2 virus (as carried by the live virus in the neutralisation assay) (human respiratory syncytial virus, …, UniProt P03420 26-574); experiment: cell-based or functional assay
Chain of RSV-F protein of RSV A2 virus (as carried by the live virus in the neutralisation assay) (P03420 26-574): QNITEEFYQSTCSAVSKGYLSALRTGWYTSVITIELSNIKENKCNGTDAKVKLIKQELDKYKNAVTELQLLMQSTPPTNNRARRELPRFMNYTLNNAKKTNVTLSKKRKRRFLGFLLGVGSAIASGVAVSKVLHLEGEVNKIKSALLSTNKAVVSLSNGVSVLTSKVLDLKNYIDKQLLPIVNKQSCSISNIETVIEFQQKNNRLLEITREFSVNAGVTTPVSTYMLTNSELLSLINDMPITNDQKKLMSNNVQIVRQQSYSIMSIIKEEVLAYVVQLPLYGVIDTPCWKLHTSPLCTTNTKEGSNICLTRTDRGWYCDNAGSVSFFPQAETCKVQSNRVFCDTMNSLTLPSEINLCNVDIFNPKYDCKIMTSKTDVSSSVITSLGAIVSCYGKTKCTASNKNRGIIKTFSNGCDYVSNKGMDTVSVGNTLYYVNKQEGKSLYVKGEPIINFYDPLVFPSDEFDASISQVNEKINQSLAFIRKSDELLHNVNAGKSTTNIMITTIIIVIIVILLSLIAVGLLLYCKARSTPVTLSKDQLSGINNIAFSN

[6] = target: T1, recombinant RSV-F protein (RSV A2 …); experiment: SPR (Biacore), antibody captured, RSV-F as analyte; remark: listed apart in the source

Row | Binder | Kd [1] | koff [2] | kon [2] | Absolute IC50, neutralizing RSV B9320 (HEp-2 cells, indirect ELISA) [3] | Absolute IC50, neutralizing RSV A Long (HEp-2 cells, indirect ELISA) [4] | Absolute IC50, neutralizing RSV A2 (HEp-2 cells, indirect ELISA) [5] | koff [6] | kon [6] | Kd [6]
1 | B1 | 0.07 nM | 0.000138 s⁻¹ | 1.97e+06 M⁻¹ s⁻¹ | – | – | – | – | – | –
2 | B2 | 0.0528 nM | 0.000162 s⁻¹ | 3.07e+06 M⁻¹ s⁻¹ | – | – | – | – | – | –
3 | B3 | 0.0698 nM | 0.000166 s⁻¹ | 2.38e+06 M⁻¹ s⁻¹ | – | – | – | – | – | –
4 | B4 | 0.0597 nM | 0.000138 s⁻¹ | 2.31e+06 M⁻¹ s⁻¹ | – | – | – | – | – | –
5 | B5 | 0.0438 nM | 0.000156 s⁻¹ | 3.57e+06 M⁻¹ s⁻¹ | – | – | – | – | – | –
6 | B6 | 0.0509 nM | 0.000117 s⁻¹ | 2.3e+06 M⁻¹ s⁻¹ | – | – | – | – | – | –
7 | B7 | 0.102 nM | 0.000165 s⁻¹ | 1.61e+06 M⁻¹ s⁻¹ | – | – | – | – | – | –
8 | B8 | – | – | – | 0.0726 µg/mL | 0.0258 µg/mL | 0.0118 µg/mL | 2.69e-05 s⁻¹ | 537000 M⁻¹ s⁻¹ | –
9 | B9 | – | – | – | – | 0.0733 µg/mL | 0.0176 µg/mL | 3.02e-05 s⁻¹ | 495000 M⁻¹ s⁻¹ | 0.061 nM
10 | B10 | – | – | – | 0.0915 µg/mL | 0.214 µg/mL | 0.0968 µg/mL | 3.68e-05 s⁻¹ | 753000 M⁻¹ s⁻¹ | 0.0489 nM
11 | B11 | – | – | – | 0.0666 µg/mL | 0.316 µg/mL | 0.118 µg/mL | 1.41e-05 s⁻¹ | 549000 M⁻¹ s⁻¹ | 0.0256 nM
12 | B12 | – | – | – | – | – | 0.00592 µg/mL | 0.000115 s⁻¹ | 673000 M⁻¹ s⁻¹ | 0.171 nM
13 | B13 | – | – | – | 0.266 µg/mL | 0.0199 µg/mL | 0.00745 µg/mL | 0.000339 s⁻¹ | 1.03e+06 M⁻¹ s⁻¹ | –
14 | B14 | – | – | – | 0.021 µg/mL | 0.0102 µg/mL | 0.012 µg/mL | – | – | –
15 | B15 | – | – | – | – | 0.0432 µg/mL | 0.101 µg/mL | 0.000169 s⁻¹ | 824000 M⁻¹ s⁻¹ | 0.205 nM
16 | B16 | – | – | – | 0.00893 µg/mL | 0.0683 µg/mL | 0.03 µg/mL | 0.00127 s⁻¹ | 357000 M⁻¹ s⁻¹ | 3.54 nM
